Source: patent publication US20260265379A1

Target: BTN3A expressed at the cell surface (human), O00481
Experiment: cell-based or functional assay

BTN3A expressed at the cell surface (human), O00481, sequence (O00481 30-513): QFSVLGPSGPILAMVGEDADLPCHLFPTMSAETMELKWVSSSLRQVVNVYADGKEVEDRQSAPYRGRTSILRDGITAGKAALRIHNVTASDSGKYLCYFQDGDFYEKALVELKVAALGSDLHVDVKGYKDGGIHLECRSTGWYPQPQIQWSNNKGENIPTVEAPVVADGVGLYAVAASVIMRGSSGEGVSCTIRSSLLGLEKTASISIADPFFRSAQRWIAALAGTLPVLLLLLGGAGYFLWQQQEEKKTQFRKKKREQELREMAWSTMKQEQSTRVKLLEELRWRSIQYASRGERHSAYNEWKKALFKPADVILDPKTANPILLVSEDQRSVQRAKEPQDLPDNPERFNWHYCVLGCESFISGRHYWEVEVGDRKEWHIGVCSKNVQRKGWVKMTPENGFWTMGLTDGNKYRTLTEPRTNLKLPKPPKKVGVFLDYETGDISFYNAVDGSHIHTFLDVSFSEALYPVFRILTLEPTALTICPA

Row | Binder | Jurkat-Vy9Vo2 TCR MOP activation at 0.5 nM (fold-change to medium) | Jurkat-Vy9Vo2 TCR MOP activation at 5 nM (fold-change to medium)
1 | bsAb020 (bispecific antibody) heavy: DIQMTQSPSSLSASVGDRVTITCHASQNINVWLSWYQQKPGKAPKLLIYKASNLHTGVPSRFTGSGSGTDFTFTISSLQPEDIATYYCQQGQTYPYTFGQGTKLEIKGGGGSGGGGSGGGGSGGGGSQVQLVQSGAEVKKPGASVKLSCKASGYIFTRYYMYWVKQRPGQGLEWIGEINPNNGGTKFNEKFKNRATLTVDKSISTAYMELSRLRSDDTAVYYCSREDDYDGTPFAMDYWGQGTLVTVSSGGGGSGGGGSGGGGSGGGGSEVQLVESGGGLVQPGGSLRLSCAASGFTFSRYWMSWVRQAPGKGLEWVANIKQDGSEKYYVDSVKGRFTISRDNAKNSLYLQMNSLRAEDTAVYYCAREGGWFGELAFDYWGQGTLVTVSSASTKGPSVFPLAPSSKSTSGGTAALGCLVKDYFPEPVTVSWNSGALTSGVHTFPAVLQSSGLYSLSSVVTVPSSSLGTQTYICNVNHKPSNTKVDKRVEPKSCDKTHTCPPCPAPEFEGGPSVFLFPPKPKDTLMISRTPEVTCVVVDVSHEDPEVKFNWYVDGVEVHNAKTKPREEQYNSTYRVVSVLTVLHQDWLNGKEYKCKVSNKALPASIEKTISKAKGQPREPQVYTLPPSREEMTKNQVSLTCLVKGFYPSDIAVEWESNGQPENNYKTTPPVLDSDGSFFLYSKLTVDKSRWQQGNVFSCSVMHEALHNHYTQKSLSLSPG light: EIVLTQSPGTLSLSPGERATLSCRASQRVSSSYLAWYQQKPGQAPRLLIYDASSRATGIPDRFSGSGSGTDFTLTISRLEPEDFAVYYCQQYGSLPWTFGQGTKVEIKRTVAAPSVFIFPPSDEQLKSGTASVVCLLNNFYPREAKVQWKVDNALQSGNSQESVTEQDSKDSTYSLSSTLTLSKADYEKHKVYACEVTHQGLSSPVTKSFNRGEC | 1.1 | 1
2 | bsAb024 (bispecific antibody) heavy: QVQLVQSGAEVKKPGASVKLSCKASGYIFTRYYMYWVKQRPGQGLEWIGEINPNNGGTKFNEKFKNRATLTVDKSISTAYMELSRLRSDDTAVYYCSREDDYDGTPFAMDYWGQGTLVTVSSGGGGSGGGGSGGGGSGGGGSDIQMTQSPSSLSASVGDRVTITCHASQNINVWLSWYQQKPGKAPKLLIYKASNLHTGVPSRFTGSGSGTDFTFTISSLQPEDIATYYCQQGQTYPYTFGQGTKLEIKGGGGSGGGGSGGGGSGGGGSEVQLVESGGGLVQPGGSLRLSCAASGFTFSRYWMSWVRQAPGKGLEWVANIKQDGSEKYYVDSVKGRFTISRDNAKNSLYLQMNSLRAEDTAVYYCAREGGWFGELAFDYWGQGTLVTVSSASTKGPSVFPLAPSSKSTSGGTAALGCLVKDYFPEPVTVSWNSGALTSGVHTFPAVLQSSGLYSLSSVVTVPSSSLGTQTYICNVNHKPSNTKVDKRVEPKSCDKTHTCPPCPAPEFEGGPSVFLFPPKPKDTLMISRTPEVTCVVVDVSHEDPEVKFNWYVDGVEVHNAKTKPREEQYNSTYRVVSVLTVLHQDWLNGKEYKCKVSNKALPASIEKTISKAKGQPREPQVYTLPPSREEMTKNQVSLTCLVKGFYPSDIAVEWESNGQPENNYKTTPPVLDSDGSFFLYSKLTVDKSRWQQGNVFSCSVMHEALHNHYTQKSLSLSPG light: EIVLTQSPGTLSLSPGERATLSCRASQRVSSSYLAWYQQKPGQAPRLLIYDASSRATGIPDRFSGSGSGTDFTLTISRLEPEDFAVYYCQQYGSLPWTFGQGTKVEIKRTVAAPSVFIFPPSDEQLKSGTASVVCLLNNFYPREAKVQWKVDNALQSGNSQESVTEQDSKDSTYSLSSTLTLSKADYEKHKVYACEVTHQGLSSPVTKSFNRGEC | 1 | 1
